These results are taken from the supplement of paper PMC11246515.

± gives the standard deviation of the averaged measurements.

The nature of the data set: total protein half-life in vivo (active degradation + dilution); higher = more stable protein.
The mark [1] stands for this setting: E. coli NCM3722 delta-clpP delta-lon delta-hslV, growth: N-lim chemostat, doubling time 6 h.
The mark [2] stands for this setting: E. coli NCM3722 delta-clpP, growth: N-lim chemostat, doubling time 6 h.
The mark [3] stands for this setting: E. coli NCM3722 delta-hslV, growth: N-lim chemostat, doubling time 6 h.
Setting [4] is: E. coli NCM3722 delta-lon, growth: N-lim chemostat, doubling time 6 h.
The mark [5] stands for this setting: E. coli NCM3722 delta-smpB, growth: N-lim chemostat, doubling time 6 h.
Where [6] appears, read: wild type E. coli NCM3722, growth: C-lim chemostat, doubling time 3 h.
Where [7] appears, read: wild type E. coli NCM3722, growth: C-lim chemostat, doubling time 6 h.
[8] abbreviates: wild type E. coli NCM3722, growth: C-lim chemostat, doubling time 12 h.
The mark [9] stands for this setting: wild type E. coli NCM3722, growth: N-lim chemostat, doubling time 6 h.
The mark [10] stands for this setting: wild type E. coli NCM3722, growth: N-lim chemostat, doubling time 12 h.
The mark [11] stands for this setting: wild type E. coli NCM3722, growth: P-lim chemostat, doubling time 6 h.
Where [12] appears, read: wild type E. coli NCM3722, growth: P-lim chemostat, doubling time 12 h.

With “MSVLQVLHIPDERLRKVAKPVEEVNAEIQRIVDDMFETMYAEEGIGLAATQVDIHQRIIVIDVSENRDERLVLINPELLEKSGETGIEEGCLSIPEQRALVPRAEKVKIRALDRDGKPFELEADGLLAICIQHEMDHLVGKLFMDYLSPLKQQRIRQKVEKLDRLKARA [P0A6K3]”, the “total protein half-life in vivo” value was determined as 5.89 ± 0.28 h under setting [1]; 4.94 ± 1.4 h under setting [2]; 3.19 ± 0.11 h under setting [3]; 3.686 ± 0.032 h under setting [4]; 2.84 ± 0.43 h under setting [5]; 2.6 ± 0.4 h under setting [6]. Also, the “total protein half-life in vivo” value reads like this: under setting [7], 3.936 ± 0.014 h; under setting [8], 6.33 ± 0.35 h; under setting [9], 3.12 ± 0.3 h; under setting [10], 4.58 ± 0.57 h; under setting [11], 4.29 h; under setting [12], 8.94 ± 0.6 h.
As to “MNYSHDNWSAILAHIGKPEELDTSARNAGALTRRREIRDAATLLRLGLAYGPGGMSLREVTAWAQLHDVATLSDVALLKRLRNAADWFGILAAQTLAVRAAVTGCTSGKRLRLVDGTAISAPGGGSAEWRLHMGYDPHTCQFTDFELTDSRDAERLDRFAQTADEIRIADRGFGSRPECIRSLAFGEADYIVRVHWRGLRWLTAEGMRFDMMGFLRGLDCGKNGETTVMIGNSGNKKAGAPFPARLIAVSLPPEKALISKTRLLSENRRKGRVVQAETLEAAGHVLLLTSLPEDEYSAEQVADCYRLRWQIELAFKRLKSLLHLDALRAKEPELAKAWIFANLLAAFLIDDIIQPSLDFPPRSAGSEKKN [P0CF93]”, the “total protein half-life in vivo” value is, setting by setting: under setting [1], 5.49 ± 0.06 h; under setting [2], 0.94 h; under setting [3], 1.34 ± 0.12 h; under setting [4], 1.85 ± 0.024 h; under setting [5], 0.81 h; under setting [6], 0.861 ± 0.23 h. The “total protein half-life in vivo” value under setting [7] was found to be 1.69 ± 0.64 h; the “total protein half-life in vivo” value under setting [8] worked out at 2.64 ± 0.44 h; the “total protein half-life in vivo” value under setting [9] worked out at 1.62 ± 0.41 h; the “total protein half-life in vivo” value under setting [10] turned out to be 2.3 ± 0.26 h; the “total protein half-life in vivo” value under setting [11] was determined as 0.485 h; the “total protein half-life in vivo” value under setting [12] came out at 11.9 h.
With “MKSSTTIITAYFDIGRGDWTANKGFREKLARSVDVYFSYFERLAALENEMIIFTSPDLKPRVEAIRNGKPTTVIVIDIKKKFRYIRSRIEKIQKDESFTNRLEPRQLKNPEYWSPEYVLVCNLKAYFVNKAINMGLVKTPLVAWIDFGYCHKPNVTRGLKIWDFPFDESKMHLFTIKKGLTVTSQQQVFDFMIGNHVYIIGGAIVGSQHKWKEFYKLVLESQKITLNNNIVDDDQGIFVMCYYKRPDLFNLNYLGRGKWFDLFRCFRSNTLGAKMQALRIFLSRK”, the “total protein half-life in vivo” value is, setting by setting: under setting [1], 6.61 ± 0.098 h; under setting [2], 6.18 ± 0.28 h; under setting [3], 5.99 ± 0.11 h; under setting [4], 6.49 ± 0.38 h; under setting [5], 5.52 ± 0.26 h; under setting [6], 2.82 ± 0.13 h. The “total protein half-life in vivo” value reads like this: under setting [7], 5.548 ± 0.042 h; under setting [8], 10.7 ± 0.57 h; under setting [9], 5.82 ± 0.57 h; under setting [10], 11.6 ± 0.62 h; under setting [11], 5.85 ± 0.86 h; under setting [12], 11.4 ± 0.17 h.
For the sequence “MSGQGKRLMVMAGGTGGHVFPGLAVAHHLMAQGWQVRWLGTADRMEADLVPKHGIEIDFIRISGLRGKGIKALIAAPLRIFNAWRQARAIMKAYKPDVVLGMGGYVSGPGGLAAWSLGIPVVLHEQNGIAGLTNKWLAKIATKVMQAFPGAFPNAEVVGNPVRTDVLALPLPQQRLAGREGPVRVLVVGGSQGARILNQTMPQVAAKLGDSVTIWHQSGKGSQQSVEQAYAEAGQPQHKVTEFIDDMAAAYAWADVVVCRSGALTVSEIAAAGLPALFVPFQHKDRQQYWNALPLEKAGAAKIIEQPQLSVDAVANTLAGWSRETLLTMAERARAASIPDATERVANEVSRVARA”, the “total protein half-life in vivo” value reads like this: under setting [1], 5.45 ± 0.24 h; under setting [2], 6.19 ± 0.33 h; under setting [3], 6.2 ± 0.14 h; under setting [4], 6.36 ± 0.52 h; under setting [5], 6.16 ± 0.19 h; under setting [6], 3.02 ± 0.13 h. Further, the “total protein half-life in vivo” value by setting is: under setting [7], 6.82 ± 0.71 h; under setting [8], 10.9 ± 0.94 h; under setting [9], 6.21 ± 0.43 h; under setting [10], 12.6 ± 0.14 h; under setting [11], 6.05 ± 0.2 h; under setting [12], 11.6 ± 0.54 h.
On to “MAKTLYEKLFDAHVVYEAENETPLLYIDRHLVHEVTSPQAFDGLRAHGRPVRQPGKTFATMDHNVSTQTKDINACGEMARIQMQELIKNCKEFGVELYDLNHPYQGIVHVMGPEQGVTLPGMTIVCGDSHTATHGAFGALAFGIGTSEVEHVLATQTLKQGRAKTMKIEVQGKAAPGITAKDIVLAIIGKTGSAGGTGHVVEFCGEAIRDLSMEGRMTLCNMAIEMGAKAGLVAPDETTFNYVKGRLHAPKGKDFDDAVAYWKTLQTDEGATFDTVVTLQAEEISPQVTWGTNPGQVISVNDNIPDPASFADPVERASAEKALAYMGLKPGIPLTEVAIDKVFIGSCTNSRIEDLRAAAEIAKGRKVAPGVQALVVPGSGPVKAQAEAEGLDKIFIEAGFEWRLPGCSMCLAMNNDRLNPGERCASTSNRNFEGRQGRGGRTHLVSPAMAAAAAVTGHFADIRNIK [P0A6A6]”, for which the “total protein half-life in vivo” value reads like this: under setting [1], 4.76 ± 0.36 h; under setting [2], 1.53 ± 0.022 h; under setting [3], 2.72 ± 0.34 h; under setting [4], 3.63 ± 0.16 h; under setting [5], 2.28 ± 0.034 h; under setting [6], 1.877 ± 0.017 h. In addition, the “total protein half-life in vivo” value by setting is: under setting [7], 3.17 ± 0.04 h; under setting [8], 3.71 ± 0.57 h; under setting [9], 2.9 ± 0.39 h; under setting [10], 3.91 ± 0.068 h; under setting [11], 2.32 ± 0.4 h; under setting [12], 5.41 ± 0.32 h.
“MNNPAMTIKGEQAKKQLIAAALAQFGEYGMNATTREIAAQAGQNIAAITYYFGSKEDLYLACAQWIADFIGEQFRPHAEEAERLFAQPQPDRAAIRELILRACRNMIKLLTQDDTVNLSKFISREQLSPTAAYHLVHEQVISPLHSHLTRLIAAWTGCDANDTRMILHTHALIGEILAFRLGKETILLRTGWTAFDEEKTELINQTVTCHIDLILQGLSQRSL [P0ACU0]”: the “total protein half-life in vivo” value came out at 5.84 ± 0.3 h under setting [1]; 5.34 ± 0.68 h under setting [2]; 4.74 ± 0.24 h under setting [3]; 4.47 ± 0.15 h under setting [5]; 2.49 ± 0.42 h under setting [6]; 5.25 ± 0.066 h under setting [7]. Further, the “total protein half-life in vivo” value under setting [9] stood at 4.76 ± 0.33 h, the “total protein half-life in vivo” value under setting [10] was 7.67 ± 0.31 h, the “total protein half-life in vivo” value under setting [11] was 4.47 ± 0.36 h and the “total protein half-life in vivo” value under setting [12] is 10.4 ± 0.78 h.
